Values of other authors, collected in publication PMC6236854 (Molecular Imaging, 2018).
Ends that are not written are not given here.

Tests used:
[1] = not given; remark: listed apart in the source
[2] = system: GHSR1a; conditions: read-out: half-maximal inhibitory concentration (IC50), binding affinity

ghrelin (GSSFLSPEHQRVQQRKESKKPPAKLQPR; ends and bridges not checked; UniProt Q9UBU3 24-51, looked up) [human ghrelin]
in vitro half-life in rat serum: 0.5 h
in vitro half-life in human serum [1]: 4 h
IC50 [2]: 7.63 nM
